According to patent publication US9120851B2, “Human antibodies to human angiopoietin-like protein 4” (Regeneron Pharmaceuticals, Inc., priority 2009, dated 2015):

T1: hANGPTL4(26-406)-His (Homo sapiens, UniProt Q9BY76)
T1 construct: purchased R&D Systems
T1 sequence (Q9BY76 26-406): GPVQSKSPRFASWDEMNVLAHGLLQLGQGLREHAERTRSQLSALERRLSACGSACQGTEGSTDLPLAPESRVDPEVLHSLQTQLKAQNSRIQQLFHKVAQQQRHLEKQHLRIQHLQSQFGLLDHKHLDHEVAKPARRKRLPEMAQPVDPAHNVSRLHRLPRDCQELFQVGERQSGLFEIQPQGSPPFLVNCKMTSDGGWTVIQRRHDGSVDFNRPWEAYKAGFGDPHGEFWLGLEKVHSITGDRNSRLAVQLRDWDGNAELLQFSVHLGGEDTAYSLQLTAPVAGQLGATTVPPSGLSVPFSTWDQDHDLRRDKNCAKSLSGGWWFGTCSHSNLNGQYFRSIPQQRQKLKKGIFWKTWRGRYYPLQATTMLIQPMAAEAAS

T2: bovine LPL (Bos taurus, UniProt P11151)
T2 sequence (P11151 29-478): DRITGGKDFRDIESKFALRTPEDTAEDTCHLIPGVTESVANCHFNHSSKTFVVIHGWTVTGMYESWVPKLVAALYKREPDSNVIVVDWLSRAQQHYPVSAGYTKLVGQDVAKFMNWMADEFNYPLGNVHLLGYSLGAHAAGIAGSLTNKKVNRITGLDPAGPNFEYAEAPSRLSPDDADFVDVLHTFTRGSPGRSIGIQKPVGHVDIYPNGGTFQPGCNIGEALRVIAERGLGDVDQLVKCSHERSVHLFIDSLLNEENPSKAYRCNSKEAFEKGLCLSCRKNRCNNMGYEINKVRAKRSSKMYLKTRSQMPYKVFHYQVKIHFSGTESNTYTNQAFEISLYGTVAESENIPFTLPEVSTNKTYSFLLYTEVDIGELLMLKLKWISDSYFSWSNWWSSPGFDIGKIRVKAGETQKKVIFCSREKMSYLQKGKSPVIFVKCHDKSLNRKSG

B1: hANGPTL4(26-148)-mFc: amino acid residues 26-148 of human ANGPTL4 fused in-line to mouse IgG2a (SEQ ID NO:480) (protein)
chain: GPVQSKSPRFASWDEMNVLAHGLLQLGQGLREHAERTRSQLSALERRLSACGSACQGTEGSTDLPLAPESRVDPEVLHSLQTQLKAQNSRIQQLFHKVAQQQRHLEKQHLRIQHLQSQFGLLDPGSLEFALERNSGEPRGPTIKPCPPCKCPAPNLLGGPSVFIFPPKIKDVLMISLSPIVTCVVVDVSEDDPDVQISWFVNNVEVHTAQTQTHREDYNSTLRVVSALPIQHQDWMSGKEFKCKVNNKDLPAPIERTISKPKGSVRAPQVYVLPPPEEEMTKKQVTLTCMVTDFMPEDIYVEWTNNGKTELNYKNTEPVLDSDGSYFMYSKLRVEKKNWVERNSYSCSVVHEGLHNHHTTKSFSRTPGK
B2: H1H268P Fab: Fab fragment of H1H268P prepared by papain digestion (antibody, V domains shown)
VH: QVQLQESGAGLLKPSETLSLTCTVYGGSFSIHHWTWIRHPPGKGLEWIGEINHRGSTNYNPSLKSRVTISIDTSKNQFSLKLSAVTAADTAVYYCARGLRFLDWLSSYFDYWGQGTLVTVSS
VL: DIQMTQSPSSLSASVGDRVTITCRASQGISDYLAWYQQKPGKVPNLLIYAASALQSGVPSRFSGSGSGTDFTLTISSLQPEDVATYYCQNYNTAPLTFGGGTKVEIK
B3: His-MfANGPTL4 (26-148): cynomolgus monkey ANGPTL4 N-terminal region (residues 26-148) with an N-terminal hexa-histidine tag (SEQ ID NO:488) (protein)
chain: MHHHHHHGPVQSKSPRFASWDEMNVLAHGLLQLGQGLREHAERTRSQLNALERRLSACGSACQGTEGSTALPLAPESRVDPEVLHSLQTQLKAQNSRIQQLFHKVAQQQRHLEKQHLRIQRLQSQVGLLD
B4: H1H284P Fab: Fab fragment of H1H284P prepared by papain digestion (antibody, V domains shown)
VH: QVQLVESGGGVVQPGRSLRLSCAASGFTFSSYGMHWVRQAPGKGLEWMAVISFDGGNKNNADSVKGRFTISRDNSKNTLYLQMNSLRAEDTAVYYCAKEGDRSGHPYFYYYGLDVWGQGTTVTVS
VL: DIQLTQSPSFLSASVGDRVTITCWASQGISSYLAWYQQKPGKAPKLLIYAASTLQSGVPSRFSGSGSETEFTLTISSLQPEDFATYYCQQLHSYPLTFGGGTKVEIK

What was measured:
humanized ANGPTL4 mice = assay: Serum TG, H4H268P2 and fenofibrate alone or in combination; assay type: in vivo, mouse
Method: The effects of the anti-ANGPTL4 antibody H4H268P2 and TG-reducing drug fenofibrate, each alone or in combination, on serum TG levels were evaluated in humanized ANGPTL4 mice. The mice were pre-bled 7 days before the experiment after 4 hours of fasting and put into 4 groups of six mice each. Groups 2 and 4 were administered with H4H268P2 at 10 mg/kg by subcutaneous injection on day 0 and groups 1 (control group) and 2 were placed on regular chow diet. Groups 3 and 4 received chow diet supplemented with 0.05% (w/w) of fenofibrate (the dosage level was determined experimentally in a pilot study). Serum was collected from a terminal bleed on day 7 after H4H268P2 and/or fenofibrate administration (after 4 hours of fasting) and analyzed by ADVIA® 1800 Chemistry System (Siemens).

C57BL/6 mice = assay: In vivo effect of hANGPTL4-mFc on plasma lipid levels; design: species or system mouse
Method: hANGPTL4 was administered intravenously to C57BL/6 mice to determine the biological effect of hANGPTL4 on plasma lipid levels. Briefly, C57BL/6 mice were put into four groups of five animals and each group was administered with different amount of hANGPTL4-mFc protein (SEQ ID NO:480): 25 μg, 50 μg, 100 μg and 300 μg, per mouse. A control group received injections of PBS. hANGPTL4-mFc protein and PBS were administered by intravenous injection (i.v.) via tail vein. Mice were bled at 15 min, 30 min, 60 min and 120 min after delivery of hANGPTL4-mFc or PBS and plasma lipid levels were determined by ADVIA® 1650 Chemistry System (Siemens). Measurements of triglycerides, total cholesterol, low density lipoprotein (LDL), nonesterified fatty acids (NEFA-C) and high density lipoprotein (HDL) were determined for each dose group. […] Thus, the 25 μg dose of hANGPTL4-mFc was selected as a possible minimum dosage for analysis of inhibition of ANGPTL4-induced increase in serum triglyceride levels by selected anti-hANGPTL4 antibodies as described below.

hANGPTL4(26-148)-mFc [1] = biological target: T3, hANGPTL4(26-148)-mFc (Homo sapiens, UniProt Q9BY76); assay: BIACORE, full mAb or Fab over anti-mFc captured hANGPTL4(26-148)-mFc; assay type: binding
T3 construct: amino acid residues 26-148 of human ANGPTL4 fused in-line to mouse IgG2a (hANGPTL4-mFc)
Method: (§1) Briefly, various concentrations (3.125 nM-100 nM) of anti-hANGPTL4 antibodies (i.e., H1H268 Fab, entire H1H268 mAb, H1H284 Fab, and entire H1H284 mAb) were injected over a low density anti-mFc captured hANGPTL4(26-148)-mFc (˜68±4 RU) surface, or the surface of amino-coupled hANGPTL4(26-406)-His (R&D Systems) (450 RU) or amino-coupled cynomolgus monkey N-terminal region (amino acid residues 1-130 of SEQ ID NO:490) expressed with an C-terminal hexa-histidine tag (MfANGPTL4(1-130)-His) (1,028 RU). Kinetic analysis was performed to measure ka and kd, and KD values and half-life of antigen/antibody complex dissociation were calculated. The results are shown in Table 4 (H1H268P) and Table 5 (H1H284P).

hANGPTL4(26-148)-mFc [2] = biological target: T3, hANGPTL4(26-148)-mFc; assay: as above; assay type: binding; remark: listed apart in the source
MfANGPTL4(1-130)-His = assay: BIACORE, full mAb or Fab over amino-coupled MfANGPTL4(1-130)-His; assay type: binding, cynomolgus monkey; settings: for Response bound at 50 nM mAb or Fab: amino-coupled 1,028 RU
Method: as §1

hANGPTL4(26-406)-His = biological target: T1, hANGPTL4(26-406)-His; assay: BIACORE, full mAb or Fab over amino-coupled hANGPTL4(26-406)-His; assay type: binding; settings: for RU bound at 50 nM mAb or Fab: amino-coupled 450 RU
Method: as §1

bovine LPL = biological target: T2, bovine LPL; assay: Dose-response of ANGPTL4 protein in the LPL assay; assay type: biochemical; settings: full dose-response of ANGPTL4 protein, determined for each experiment
Method: Briefly, 2 nM bovine LPL, 0.25 μM human ApoCII (a cofactor of LPL), 2 mg/mL BSA and 1.6 mM CaCl2, were premixed in a 96-well assay plate. Either hANGPTL4-His or hANGPTL4-mFc protein was added to the Apo/LPL mixture to a final concentration of 10 nM and 2 nM, respectively. The Apo/LPL/ANGPTL4 protein mixtures were then added together with serially diluted anti-hANGPTL4 antibodies with a starting concentration of 300 nM (for inhibition of hANGPTL4-His) or 100 nM (for inhibition of hANGPTL4-mFc) and incubated at room temperature for 30 minutes (final volume 50 μl). Following the incubation, 200 μl of reconstituted lipase substrate, 1-trinitrophenyl-amino-dodecanoyl-2-pyrendecanoyl-3-0-hexadecyl-sn-glycerol (LS-A, Progen), was added to the antibody mixture and incubated at 37° C. for two hours. Fluorescence was then measured at 342 nm/400 nm (excitation/emission) using a FlexStation® 3 Microplate Reader (Molecular Devices, CA). Fluorescence is directly proportional to LPL activity. Control I: a rabbit polyclonal antibody specific for hANGPTL4 (BioVendor). […] NT: not tested. […]

[3] = pH 5.75, 25° C., antigen captured 27 ± 0.6 RU
[4] = pH 7.2, 25° C., antigen captured 35 ± 1.9 RU

Molecule	ka (hANGPTL4(26-148)-mFc [1]; pH 5.75, 25° C.) [M⁻¹ s⁻¹]	kd (hANGPTL4(26-148)-mFc [1]; pH 5.75, 25° C.) [s⁻¹]	ka (hANGPTL4(26-148)-mFc [1]; pH 7.2, 25° C.) [M⁻¹ s⁻¹]	kd (hANGPTL4(26-148)-mFc [1]; pH 7.2, 25° C.) [s⁻¹]	Response bound at 50 nM mAb or Fab (RU) (hANGPTL4(26-148)-mFc [2]; [3])	Response bound at 50 nM mAb or Fab (RU) (hANGPTL4(26-148)-mFc [2]; [4])	ka (MfANGPTL4(1-130)-His; pH 5.75, 25° C.) [M⁻¹ s⁻¹]	kd (MfANGPTL4(1-130)-His; pH 5.75, 25° C.) [s⁻¹]	Response bound at 50 nM mAb or Fab (MfANGPTL4(1-130)-His; pH 5.75, 25° C.)	ka (MfANGPTL4(1-130)-His; pH 7.2, 25° C.) [M⁻¹ s⁻¹]	kd (MfANGPTL4(1-130)-His; pH 7.2, 25° C.) [s⁻¹]	Response bound at 50 nM mAb or Fab (MfANGPTL4(1-130)-His; pH 7.2, 25° C.)	ka (hANGPTL4(26-406)-His; pH 5.75, 25° C.) [M⁻¹ s⁻¹]	kd (hANGPTL4(26-406)-His; pH 5.75, 25° C.) [s⁻¹]	RU bound at 50 nM mAb or Fab (hANGPTL4(26-406)-His; pH 5.75, 25° C.)	ka (hANGPTL4(26-406)-His; pH 7.2, 25° C.) [M⁻¹ s⁻¹]	kd (hANGPTL4(26-406)-His; pH 7.2, 25° C.) [s⁻¹]	RU bound at 50 nM mAb or Fab (hANGPTL4(26-406)-His; pH 7.2, 25° C.)	other results
CC(C)OC(=O)C(C)(C)Oc1ccc(C(=O)c2ccc(Cl)cc2)cc1 [fenofibrate]																			TG levels reduced (mean) compared to control group on chow diet (humanized ANGPTL4 mice; day 7, H4H268P2 10 mg/kg s.c. day 0, fenofibrate 0.05% (w/w) in chow): ~25%; liver enlargement (liver weight/body weight) compared to control chow diet (humanized ANGPTL4 mice; mice that consumed fenofibrate for 7 days (groups 3 and 4)): 1.8 times
B1																			increase of circulating triglycerides as compared to control mice (PBS) (C57BL/6 mice; 25 μg/mouse i.v., 30 minutes post injection): greater than two-fold; total cholesterol, LDL, NEFA-C and HDL across dose groups (C57BL/6 mice; 25, 50, 100, 300 μg per mouse i.v., each time point post-injection): not significantly different
B2	174000	0.00304	300000	0.000601	20	10	312000	0.00432	178	267000	0.00171	167	444000	0.00657	10	726000	0.0118	13	
B3																			EC50 (bovine LPL): 3.89 nM
B4	472000	0.0016	245000	0.000202	56	29	724000	0.00619	255	310000	0.00313	214	1.21e+06	0.00173	33	1.11e+06	0.000344	32	
